Measured values published in IntAct's records for PubMed 28712572.

Molecular target: gbrap_human GABARAP (UniProt O95166)
Sequence (O95166 whole entry): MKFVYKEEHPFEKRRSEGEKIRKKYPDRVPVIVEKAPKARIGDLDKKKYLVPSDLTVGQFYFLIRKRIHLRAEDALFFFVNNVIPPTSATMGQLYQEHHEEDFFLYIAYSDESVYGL

Row | Substance | effect of a mutation on the interaction
1 | Pericentriolar material 1 protein (Homo sapiens), Q15154 S1958Q | with no effect
2 | Pericentriolar material 1 protein (Homo sapiens), Q15154 S1958R | with no effect
3 | Pericentriolar material 1 protein (Homo sapiens), Q15154 S1958T | with no effect
4 | Pericentriolar material 1 protein (Homo sapiens), Q15154 S1958V | with no effect
5 | Pericentriolar material 1 protein (Homo sapiens), Q15154 S1958W | with no effect
6 | Pericentriolar material 1 protein (Homo sapiens), Q15154 S1958Y | with no effect
7 | Pericentriolar material 1 protein (Homo sapiens), Q15154 T1974A | with no effect
8 | Pericentriolar material 1 protein (Homo sapiens), Q15154 T1974C | with no effect
9 | Pericentriolar material 1 protein (Homo sapiens), Q15154 T1974D | with no effect
10 | Pericentriolar material 1 protein (Homo sapiens), Q15154 T1974E | with no effect
11 | Pericentriolar material 1 protein (Homo sapiens), Q15154 T1974F | with no effect
12 | Pericentriolar material 1 protein (Homo sapiens), Q15154 T1974G | with no effect
13 | Pericentriolar material 1 protein (Homo sapiens), Q15154 T1974H | with no effect
14 | Pericentriolar material 1 protein (Homo sapiens), Q15154 T1974I | with no effect
15 | Pericentriolar material 1 protein (Homo sapiens), Q15154 T1974K | with no effect
16 | Pericentriolar material 1 protein (Homo sapiens), Q15154 T1974L | with no effect
17 | Pericentriolar material 1 protein (Homo sapiens), Q15154 T1974M | with no effect
18 | Pericentriolar material 1 protein (Homo sapiens), Q15154 T1974N | with no effect
19 | Pericentriolar material 1 protein (Homo sapiens), Q15154 T1974P | with no effect
20 | Pericentriolar material 1 protein (Homo sapiens), Q15154 T1974Q | with no effect
21 | Pericentriolar material 1 protein (Homo sapiens), Q15154 T1974R | with no effect
22 | Pericentriolar material 1 protein (Homo sapiens), Q15154 T1974S | with no effect
23 | Pericentriolar material 1 protein (Homo sapiens), Q15154 T1974V | with no effect
24 | Pericentriolar material 1 protein (Homo sapiens), Q15154 T1974W | with no effect
25 | Pericentriolar material 1 protein (Homo sapiens), Q15154 T1974Y | with no effect
